According to US20150218261A1:

Key:
sAPPα = sAPPα (UniProt P05067); assay: dot blot, antigen dilution series on nitrocellulose (first dot 1 pmol), antibody 0.2 µg/ml, densitometry
[1] = biological target: Aβ(1-42) globulomer (human); assay: dot blot, antigen dilution series on nitrocellulose, antibody 0.2 µg/ml, densitometry
Aβ(1-42) fibril (human) = assay: as above
Sequence of Aβ(1-42) fibril (human) (peptide, as listed by the source): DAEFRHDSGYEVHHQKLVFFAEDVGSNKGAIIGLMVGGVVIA

Sequence of Aβ(1-42) globulomer (human) (peptide, as listed by the source): as above

dot blot quantification (relation between recognition of Aβ(20-42) globulomer and the respective Aβ form) (sAPPα): > 100
dot blot quantification (relation between recognition of Aβ(20-42) globulomer and the respective Aβ form) [1]: > 10000
dot blot quantification (relation between recognition of Aβ(20-42) globulomer and the respective Aβ form) (Aβ(1-42) fibril (human)): > 10000
B1: humanized monoclonal anti-Aβ antibody 4D10hum#1 (antibody, human IgG1, kappa, V domains shown)
VH: EVQLVESGGGLVQPGGSLRLSCAVSGFTLSSYGVHWVRQAPGKGLEWLGVIWRGGRIDYNAAFMSRLTISKDNSKSTVYLQMNSLRAEDTAVYYCARNSDVWGQGTTVTVSS
VL: DVVMTQTPLSLPVTPGQPASISCKSSQSLLDIDGKTYLNWLLQKPGQSPQRLIYLVSKLDSGVPDRFSGSGSGTDFTLKISRVEAEDVGVYYCWQGTHFPYTFGQGTKLEIKR
